Reference: publication PMC3590144, “Determination of the Structure of the Catabolic N-Succinylornithine Transaminase (AstC) from Escherichia coli” (PLoS ONE, 2013)

B1: apo-AstC, N-succinylornithine transaminase from Escherichia coli, without PLP (enzyme, E. coli (BL21 DE3), UniProt P77581 1-406, looked up)
chain: MSQPITRENFDEWMIPVYAPAPFIPVRGEGSRLWDQQGKEYIDFAGGIAVNALGHAHPELREALNEQASKFWHTGNGYTNEPVLRLAKKLIDATFADRVFFCNSGAEANEAALKLARKFAHDRYGSHKSGIVAFKNAFHGRTLFTVSAGGQPAYSQDFAPLPADIRHAAYNDINSASALIDDSTCAVIVEPIQGEGGVVPASNAFLQGLRELCNRHNALLIFDEVQTGVGRTGELYAYMHYGVTPDLLTTAKALGGGFPVGALLATEECARVMTVGTHGTTYGGNPLASAVAGKVLELINTPEMLNGVKQRHDWFVERLNTINHRYGLFSEVRGLGLLIGCVLNADYAGQAKQISQEAAKAGVMVLIAGGNVVRFAPALNVSEEEVTTGLDRFAAACEHFVSRGSS
notes: AstC (acetyl/succinylornithine aminotransferase) of E. coli; native, untagged protein, no plasmid or clone used; electron density from Gln3 to Ser402, the last 4 residues (Arg-Gly-Ser-Ser) not modelled, which implies 406 residues; Endogenous protein of strain BL21 (DE3); also called apo-protein; apo-enzyme; source: endogenous, E. coli BL21 (DE3) grown in 2xYT, purified (Ni-NTA, size exclusion …)
B2: holo-AstC, N-succinylornithine transaminase from Escherichia coli reconstituted with PLP (enzyme, E. coli (BL21 DE3), UniProt P77581 1-406, looked up)
chain: B1 chain
modifications: PLP bound to Lys252 in a Schiff base (aldimine)
notes: AstC (acetyl/succinylornithine aminotransferase) of E. coli; native, untagged protein, no plasmid or clone used; the last 4 residues (Arg-Gly-Ser-Ser) after Ser402 not modelled, which implies 406 residues; Same polypeptide as m1, with the cofactor PLP added; Endogenous protein of strain BL21 (DE3); also called holo-enzyme; PLP/enzyme complex; source: endogenous, E. coli BL21 (DE3), purified …

What was measured:
[1] = biological target: the molecule itself; assay: crystal structure; apo-AstC without PLP; space group R32:h, 2 molecules in the asymmetric unit, 2.75 Å; grown in 1.4 M sodium malonate pH 7 at 20 °C; dimers formed by crystallographic symmetry
[2] = biological target: the molecule itself; assay: dynamic light scattering; in solution; hydrodynamic radius mean value 4.5 nm, about 100 kDa; data not shown

| Protein | binding result [1] | stoichiometry N [2] |
| --- | --- | --- |
| B1 | binds | – |
| B2 | – | 2 |
